A short description of this data set: soluble on expression in E. coli; label from the status in PepcDB or PDB records.
In the case of “MAGLGHPAAFGRATHAVVRALPESLGQHALRSAKGEEVDVARAERQHQLYVGVLGSKLGLQVVELPADESLPDCVFVEDVAVVCEETALITRPGAPSRRKEVDMMKEALEKLQLNIVEMKDENATLDGGDVLFTGREFFVGLSKRTNQRGAEILADTFKDYAVSTVPVADGLHLKSFCSMAGPNLIAIGSSESAQKALKIMQQMSDHRYDKLTVPDDIAANCIYLNIPNKGHVLLHRTPEEYPESAKVYEKLKDHMLIPVSMSELEKVDGLLTCCSVLINKKVDS”, the “soluble on expression in E. coli” value is reported as “not soluble”. Then “MGSDKIHHHHHHMRNEYFFRVAGLTFSVILPGGLDAETLLPSFRPFRCGECPEGERIFRLLADTRPFADDGKRAELLDESSNDMGHVCLLRIPGGYRTEISYGPMDGGAHLMTVDTAFDDATAFLRVEDPSMGEVLSSMLRILYAQAALGRDAVSVHASCVSLKGRGYLFLGKSGTGKSTHSRQWLEAFPDCRLLNDDNPVLRIEDGMVSVYGTPWSGKTPCYRNERRPVAGIVRLQQSGTNRFTPLEGPEAFAALLPSCSAIRQDIRLHDELCRILIRVTEQVPVGRLECLPDREAAWLCFESLYVRDAKAREVRDGLPENGGL”, with “not soluble”. To “MARKTKEDTQATREGILDAAEACFHEHGVARTTLEMIGARAGYTRGAVYWHFKNKSEVLAAIVERVHLPFMQELERTSTDQRDTPVHDLRAVMIHSFIELSEDERLRKTMEIMLRSDASANTRVLTEMQQAGFRDALDRMERALRRARDLGQLREGADPKIAARMLHATVLGVLHGAMVEPELMDLKRDGMLALDMTLAAYVKDGVFVPGTVPEPLPEA” belongs “soluble”; to “MSLTTPLYPIILAGGSGTRLWPLSRQNFPKQFLKLNGELSLIQQTMKRAMGLPGNQTIIVSNDAHYFICQDQLQDFNAQTTYLLEPCARNTAPAIACAAHYLANTVGKDAVMLVLPSDHWIADDEIWLAAMLEGGQFASENNAIVTFGIKPDSPKTGYGYIEAGTTLSSDIKQVLSFREKPDAHTAAQFVSKGNYFWNSGMFICRAGVYLEELEQFETDIYQFSQQALTLAQHHHDFLRLDLDCFSQCKEESIDYAIMEKTDKAVVIPISIQWSDLGCWTAVADANKQDEQGNTLIGNVIAQDSHNCLINSEELLVTTVGIQDQIIVATSDAVLVADKRYSQQVKDLVHSLRKDHPHLTQDHQRVPRPWGYYEVLAEGTSFKVKRLMVKPGAKLSLQTHQHRAEHWVIVGGEAEVVNGNNTFRLSKNQSTYIPKNALHRLSNPHNEPLYVIEVQSGSYLGEDDIKRFDDIYLRKEVEEGHHHHHH”, “soluble”. To “MAHHHHHHMLKRYERTKLNVLRGERFLRLCEVSYRAVCRDPSLGGAEGIANIEDRTWEMVQRTFQASPERCSLKNAPFSVDGVEICALLRRPDNVFLILVAQYRPPVDAVVLEFPAGLVDNGEDVKSAALRELKEETGYVATEENIISVTDALCCEPGMTDSCCKFVRLFVDGEKEVNRFPQQELDEGEDIEVILLPISLKKGVAGGDTPLQSLNKLLHEKNKGQQRNIVDAKLYMFLDGLSQMSTMFC” belongs “soluble”. Take “MSLTNDERILSWNETPSKPRYTPPPGAIDAHCHVFGPMAQFPFSPKAKYLPRDAGPDMLFALRDHLGFARNVIVQASCHGTDNAATLDAIARAQGKARGIAVVDPAIDEAELAALHEGGMRGIRFNFLKRLVDDAPKDKFLEVAGRLPAGWHVVIYFEADILEELRPFMDAIPVPIVIDHMGRPDVRQGPDGADMKAFRRLLDSREDIWFKATCPDRLDPAGPPWDDFARSVAPLVADYADRVIWGTDWPHPNMQDAIPDDGLVVDMIPRIAPTPELQHKMLVTNPMRLYWSEEMEGHHHHHH”: the “soluble on expression in E. coli” value is “soluble”. On to “MKLIILEHYSQASEWAAKYIRNRIIQFNPGPEKYFTLGLPTGSTPLGCYKKLIEYYKNGDLSFKYVKTFNMDEYVGLPRDHPESYHSFMWNNFFKHIDIHPENTHILDGNAVDLQAECDAFEEKIKAAGGIELFVGGIGPDGHIAFNEPGSSLVSRTRVKTLAMDTILANARFFDGELTKVPTMALTVGVGTVMDAREVMILITGAHKAFALYKAIEEGVNHMWTVSAFQQHPRTVFVCDEDATLELKVKTVKYFKGLMLVHNKLVDPLYSIKEKETEKSQSSKKPYSD”, for which the “soluble on expression in E. coli” value is “soluble”.

As to “MMTRLPLGATLPDFPWDSLADAKKTASSHPDGLINLSVGSPVDEVAPGIRLALAEAAAAPGYPQTIGTQELRAAIVDSLQRRYHATSLGGVLPVVGTKEAIALLPTLLGIRGTVVIPEVAYPTYEVGALMAGATPLRCDAPHELPNDDIDLVFINSPSNPTGRVASVEELRSIVAWAQANDVIVASDECYLGLAWDGEAVSILDPRVNDGNLSNLLAIHSLSKSSNLASYRAGFLAGDEALIAELTEIRKHSGLMVPGPIQAAMVEALRDDDQEALQKLRYARRRALLMRALIDAGFTVEHSEAGLYLWATRGENCRATVDWFASHGILVAPGDFYGPDAHNFVRVALTTTDDNAEKVAARLQKGN”, the “soluble on expression in E. coli” value is listed as “soluble”. Then “MFRNAAELVAQAKEQNVKIAEIMIQCEMETRSISREEVIAGMEKNLVVMEQAVERGIRGVKSPTGLTGGDAVKVQAYMKSGKGLSGDTILDAVSKAVATNEVNAAMGIICATPTAGSAGTVPGVLFALREKLQPTREEMIEFLFTAGAFGMVVANNACISGAAGGCQAEVGSASGMAAAAAVEMAGGTQEQAATAMAISLKNMLGLVCDPVAGLVEVPCVKRNAAGAANAMISADLALAGVTSTIPCDEVIEAMFRIGQTMPVALRETAEGGLAATPTGRRLQEEIFGKTNN”, with “not soluble”; and “MIQDTRPLIRVVAGILLDSDGNYLLSSRPEGKPYAGYWEFAGGKVEAGETDFQALQREFEEELGIRILAATPWLTKIHSYEHARVCLKFLWVNPDQWTGKPQSREGQEWSWQKAGDFTVAPMLPANGALLRSLSVPRRLYGSLKTGLHGENSMGAYRVLPLGSAEGSGANVLMEAAQWQDRPEHADSVWMVVQTREQWRRAQEKGADAVVWRVCDDVQAQEAAEALRQGVSVPLVLAANGQTVARYGKLWLGLGAHVVVRDETIGKNHE”, with “not soluble”. To “MGSDKIHHHHHHMGSPYIQARLSQIGDLMSFGIIQLDYEEVLAKHYRRWIQPGDTVIDVGAHLGLHLSRFIELAGPTGQVIGFEPLPFAFDILSTQHACPTLTLNNVALAHEPGHAEFTFAQGSPGESGLRKRLYISPETVTPTLIPVKVDTLDMHTENLRSVDYIKIDIEGGEIGCLEGATRTIDKFRPLISTEYGYPSYSVYGLTKDSLFNFASSKNYVLFDIFLNRIDTRDEWHIVCDSICWDYFLVPAEKLDVFTERVARRAF” belongs “not soluble”; to “MGSDKIHHHHHHMNILLVYKEDYPWDVRVEKIALSLISRGHDVTIVARNRQCSKTTETVNGIEIVRLPALFKPDGLLNKLLNLPVWFNPFWIWTLRSALRGKPGALIIVRDLPLVKTALLVARGARAKIMLDMAEVYPYMYESGRQFSKGTNFESMIKSPALAARYEAKVLPKIDHTLVMIEESRDRLLQMGLSPQRVSIVSNTPPLDKFSGNTHQHQGRKLRLVYVGFLTKLRGLDLLIEAAYEYVKLGNEPSSLKIDIVGKGAEREHLIALVRDLKLEESVTIHGWLDHQRVDELMAQANVGALTYRVCPHWNHTIPNKIFDYMLAGLPVLATEVTPINRIINETKSGLVCRDLDIRDIAEKLQTLRCPELRSTLGNNGVNAVRAKYNWANDEQRLHAAVNSIAP”, “not soluble”. With “MGSDKIHHHHHHMSVEQTYSWLRKAGSIDDLAHYIIPLFSGAEKKNWKGILGHLQHHGMFKNIKEGIQTVSKLKEKGFYGHIQKEEQYLKNKWQGPDVPIVTLPVDERNRRIRLEFGSKSGLAFQDKMFLFLSSDLDFGSVSALMTHEYHHVCRLGHLTKEEKDVTLLDTIIMEGLAEYAVYERFGRSQTAEWTTWYTPEQLQALYEKKIAPHRDIKRDNRLFPQLLFGKGYQPKMLGYAVGFNIVKKYLTASKASTADGLSIPAETFLDAML”, the “soluble on expression in E. coli” value is listed as “not soluble”.

Turning to “MEDVFKGIEKEIIKIYKIPERKGRFSNFKFKNKEINELIDALGFKLYLHQVKALKYLYNKKDVVVTTSTASGKSEIFRLAIFDNFLSNPDDRYLLIYPTRALINNQYEKFSMENELFYKITNKRVKAEILTGDVGLEKRREILKDKPNVLFTTPDMLHYQILKNHNNYLWLLKNLKLLVVDELHVYRGVFGTNMVYVFKRLLKLLKRLNNNLQILCLSATLKNPKEFVKLLFNRDFEVVD”, the “soluble on expression in E. coli” value is listed as “not soluble”.

Values taken from the DeepSol protein solubility set.
